The values below come from article PMC3498381, “Isolated Toll-like Receptor Transmembrane Domains Are Capable of Oligomerization” (PLoS ONE, 2012).

“And” between values parts separate entries of the source, which are not always exact repeats. Equal values may be shown once.

The target in experiment [1] is TMD5 D150A. Kind of experiment: homotypic ToxR assay. Conditions: higher signal = more homotypic TMD association; parent: est. 1.0; read off a plot.
Experiment [2] concerns the target synthetic TLR6 transmembrane domain peptide, coumarin-labelled (human). Kind of experiment: AUC; sedimentation equilibrium; labelled peptide in density matched C14-betaine micelles (10 mM), 100 mM HEPES pH 7.4; FITC-TLR2 read at 495 nm, coumarin-TLR6 at 400 nm; for the heterotypic run FITC-TLR2 with 2 equiv. of coumarin-TLR6; global fit.
In experiment [3] the target is TLR2 G593A. Put plainly: homotypic ToxR assay. Conditions: higher signal = more homotypic TMD association; parent: est. 1.0; read off a plot.
For experiment [4], the target named is synthetic TLR6 transmembrane domain peptide, coumarin-labelled (human). Put plainly: FRET or BRET; coumarin-TLR1 or -TLR6 peptide (donor) fixed at 20 nM, fluorescein-TLR2 peptide (acceptor) titrated 0-1500 nM; 1 mM C14-betaine micelles, 100 mM HEPES pH 7.4; excitation 415 nm; Hill equation. In general terms: BRET reads energy transfer from a luciferase to a nearby fluorophore.

Experiment [5] has as its target synthetic TLR1 transmembrane domain peptide, coumarin-labelled (human). The description is as above.
Experiment [6] has as its target synthetic TLR2 transmembrane domain peptide, fluorescein-labelled (human). Kind of experiment: AUC; sedimentation equilibrium; labelled peptide in density matched C14-betaine micelles (10 mM), 100 mM HEPES pH 7.4; FITC-TLR2 read at 495 nm, coumarin-TLR6 at 400 nm; for the heterotypic run FITC-TLR2 with 2 equiv. of coumarin-TLR6; global fit.
In experiment [7] the target is T1, TLR10 transmembrane domain (ToxR chimera).
T1 chain: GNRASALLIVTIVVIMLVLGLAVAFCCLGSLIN
Put plainly: heterotypic ToxR assay. The following applies: chain shown with the change; competitor TLR10* (nonfunctional ToxR* chimera); PolyLeu* = 1.0; lower signal = more ToxR inhibition = more interaction; parent: est. 0.41; read off a plot.

Experiment [8] has as its target T2, TLR4 transmembrane domain (ToxR chimera).
T2 chain: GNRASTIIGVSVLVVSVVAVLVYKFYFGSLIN
Kind of experiment: heterotypic ToxR assay. The following applies: chain shown with the change; competitor TLR4* (nonfunctional ToxR* chimera); PolyLeu* = 1.0; lower signal = more ToxR inhibition = more interaction; parent: est. 0.90; read off a plot.

Experiment [9] addresses T3, TLR6 transmembrane domain (ToxR chimera).
T3 chain: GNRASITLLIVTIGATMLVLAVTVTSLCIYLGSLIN
Put plainly: heterotypic ToxR assay. Conditions: chain shown with the change; competitor TLR6* (nonfunctional ToxR* chimera); PolyLeu* = 1.0; lower signal = more ToxR inhibition = more interaction; parent: est. 0.24; read off a plot.

In experiment [10] the target is T4, TLR5 transmembrane domain (ToxR chimera).
T4 chain: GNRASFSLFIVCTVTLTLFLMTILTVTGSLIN
Put plainly: heterotypic ToxR assay. The following applies: chain shown with the change; competitor TLR5* (nonfunctional ToxR* chimera); PolyLeu* = 1.0; lower signal = more ToxR inhibition = more interaction; parent: est. 0.53; read off a plot.

Experiment [11] has as its target T5, TLR1 transmembrane domain (ToxR chimera).
T5 chain: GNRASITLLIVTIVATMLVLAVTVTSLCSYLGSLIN
Put plainly: heterotypic ToxR assay. The following applies: chain shown with the change; competitor TLR1* (nonfunctional ToxR* chimera); PolyLeu* = 1.0; lower signal = more ToxR inhibition = more interaction; parent: est. 0.47; read off a plot.

The target in experiment [12] is T6, TLR2 transmembrane domain (ToxR chimera).
T6 chain: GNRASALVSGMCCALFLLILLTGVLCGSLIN
Put plainly: heterotypic ToxR assay. The following applies: chain shown with the change; competitor TLR2* (nonfunctional ToxR* chimera); PolyLeu* = 1.0; lower signal = more ToxR inhibition = more interaction; parent: est. 0.42; read off a plot.

The target in experiment [13] is T7, TLR2 transmembrane domain C609I (ToxR chimera), O60603.
T7 chain: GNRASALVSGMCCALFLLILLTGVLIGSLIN
Put plainly: homotypic ToxR assay. The following applies: chain shown with the change; higher signal = more homotypic TMD association; parent: est. 1.0; read off a plot.

In the case of “TMD5 from latent membrane protein 1 (ToxR* chimera) D150A”, the response (normalized Miller units) in experiment [1] was 0.59.

For orientation: stoichiometry N means the number of molecules, sites or subunits per partner or assembly. Take “synthetic TLR6 transmembrane domain peptide, coumarin-labelled”: the stoichiometry N in experiment [2] worked out at 2.

Turning to “TLR2 transmembrane domain (ToxR chimera) G593A”, the response (normalized Miller units) in [3] worked out at 1.1.

By Kd is commonly meant the concentration at which binding is half-saturated. Low readings indicate a tighter complex, high ones a looser complex. Take “synthetic TLR2 transmembrane domain peptide, fluorescein-labelled”: the figures for the Kd in [4] and in experiment [5] were 286 nM and 231 nM, respectively. Also, the stoichiometry N in [6] is 2 and 4.

For the molecule GNRASALVSGMCCALFLLILLTGVLIGSLIN [TLR2 transmembrane domain (ToxR chimera) C609I], the response (normalized Miller units) in experiment [7] amounted to 0.63; in experiment [8], 0.88; in experiment [9], 0.82; in experiment [10] it was 0.81; in [11], 0.78; in experiment [12] it was 0.55. Moreover, the response (normalized Miller units) in [13] was found to be 1.1.
